Assay results taken from IntAct's records for PubMed 26598606.

B1: Protein OPY2 (Saccharomyces cerevisiae), Q06810 (parent)
chain: MSSSSKASASSSLSSTATSSTSATRGSDGCVVCDSTASCPVCASGEYCVMTSLTCDKCPSTYCAKQSDSQLSSLSSSSSSSSSSNSNEKTSLIVGFTVGIVGGAMLIALVALYFINKRYWKPKRQKNKALKLEEASQSYGNEEEYFDDEDDDDEDDEDDGGMRKDESHTLFNTSLVPPTLNVPGNRSSASTTRTRASNILPIAYIPGVTSGLSTDKLQSKLRSSSKRQNAAGDIRSHITLGSSILDGLDDEDDEHNQVLNKDADDNLITAIRAKPKLVQIAEEESDKEIQDLDVIEEQTEADDLSHMAKSEASHGNNDEDDDEEGSFILDLEIPESIRESTQGSRTESPFEDKFEIHDER
partner: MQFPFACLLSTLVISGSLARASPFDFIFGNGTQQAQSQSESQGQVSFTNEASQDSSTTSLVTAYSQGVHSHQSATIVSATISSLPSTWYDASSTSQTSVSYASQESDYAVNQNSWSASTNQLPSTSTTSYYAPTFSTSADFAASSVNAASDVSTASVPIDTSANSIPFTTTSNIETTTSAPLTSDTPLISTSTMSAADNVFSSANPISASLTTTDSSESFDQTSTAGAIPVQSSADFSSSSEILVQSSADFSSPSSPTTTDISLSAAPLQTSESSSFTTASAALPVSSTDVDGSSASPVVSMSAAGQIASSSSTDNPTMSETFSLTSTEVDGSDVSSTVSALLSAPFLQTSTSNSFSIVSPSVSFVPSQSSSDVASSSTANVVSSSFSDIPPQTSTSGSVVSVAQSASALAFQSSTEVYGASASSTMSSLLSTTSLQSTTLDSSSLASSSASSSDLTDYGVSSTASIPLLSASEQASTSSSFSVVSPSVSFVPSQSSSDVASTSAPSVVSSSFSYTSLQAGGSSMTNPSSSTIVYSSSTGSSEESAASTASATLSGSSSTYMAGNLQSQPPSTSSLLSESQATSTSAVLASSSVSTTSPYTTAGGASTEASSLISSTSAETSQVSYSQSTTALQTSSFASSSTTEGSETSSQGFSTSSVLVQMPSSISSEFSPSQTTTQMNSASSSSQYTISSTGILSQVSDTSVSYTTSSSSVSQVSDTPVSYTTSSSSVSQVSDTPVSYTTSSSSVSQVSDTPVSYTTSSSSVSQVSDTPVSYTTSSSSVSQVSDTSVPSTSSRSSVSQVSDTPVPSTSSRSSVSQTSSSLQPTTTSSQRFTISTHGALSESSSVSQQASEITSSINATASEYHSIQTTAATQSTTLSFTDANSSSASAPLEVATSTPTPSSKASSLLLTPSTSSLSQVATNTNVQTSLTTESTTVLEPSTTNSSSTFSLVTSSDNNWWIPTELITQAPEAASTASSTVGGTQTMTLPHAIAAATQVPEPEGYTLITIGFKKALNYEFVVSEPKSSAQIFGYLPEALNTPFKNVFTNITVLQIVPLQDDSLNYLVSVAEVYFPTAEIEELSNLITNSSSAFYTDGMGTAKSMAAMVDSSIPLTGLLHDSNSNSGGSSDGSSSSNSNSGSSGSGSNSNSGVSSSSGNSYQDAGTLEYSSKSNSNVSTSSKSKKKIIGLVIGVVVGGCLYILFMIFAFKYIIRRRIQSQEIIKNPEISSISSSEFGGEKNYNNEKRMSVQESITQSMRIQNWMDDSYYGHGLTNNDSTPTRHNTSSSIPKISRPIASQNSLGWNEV

Variants of: B1
Conditions: with msb2_yeast MSB2, P32334

Variant | effect of a mutation on the interaction
MSSSSKASASSSLSSTATSSTSATRGSDGAVVCDSTASCPVAASGEYCVMTSLTCDKCPSTYCAKQSDSQLSSLSSSSSSSSSSNSNEKTSLIVGFTVGIVGGAMLIALVALYFINKRYWKPKRQKNKALKLEEASQSYGNEEEYFDDEDDDDEDDEDDGGMRKDESHTLFNTSLVPPTLNVPGNRSSASTTRTRASNILPIAYIPGVTSGLSTDKLQSKLRSSSKRQNAAGDIRSHITLGSSILDGLDDEDDEHNQVLNKDADDNLITAIRAKPKLVQIAEEESDKEIQDLDVIEEQTEADDLSHMAKSEASHGNNDEDDDEEGSFILDLEIPESIRESTQGSRTESPFEDKFEIHDER [C30A;C42A] | disrupting interaction strength
MSSSSKASASSSLSSTATSSTSATRGSDGCVVADSTASCPVCASGEYCVMTSLTCDKAPSTYCAKQSDSQLSSLSSSSSSSSSSNSNEKTSLIVGFTVGIVGGAMLIALVALYFINKRYWKPKRQKNKALKLEEASQSYGNEEEYFDDEDDDDEDDEDDGGMRKDESHTLFNTSLVPPTLNVPGNRSSASTTRTRASNILPIAYIPGVTSGLSTDKLQSKLRSSSKRQNAAGDIRSHITLGSSILDGLDDEDDEHNQVLNKDADDNLITAIRAKPKLVQIAEEESDKEIQDLDVIEEQTEADDLSHMAKSEASHGNNDEDDDEEGSFILDLEIPESIRESTQGSRTESPFEDKFEIHDER [C33A;C58A] | decreasing interaction strength
MSSSSKASASSSLSSTATSSTSATRGSDGCVVADSTASAPVCASGEYCVMTSLTCDKCPSTYCAKQSDSQLSSLSSSSSSSSSSNSNEKTSLIVGFTVGIVGGAMLIALVALYFINKRYWKPKRQKNKALKLEEASQSYGNEEEYFDDEDDDDEDDEDDGGMRKDESHTLFNTSLVPPTLNVPGNRSSASTTRTRASNILPIAYIPGVTSGLSTDKLQSKLRSSSKRQNAAGDIRSHITLGSSILDGLDDEDDEHNQVLNKDADDNLITAIRAKPKLVQIAEEESDKEIQDLDVIEEQTEADDLSHMAKSEASHGNNDEDDDEEGSFILDLEIPESIRESTQGSRTESPFEDKFEIHDER [C33A;C39A] | disrupting interaction strength
MSSSSKASASSSLSSTATSSTSATRGSDGAVVCDSTASCPVCASGEYCVMTSLTADKCPSTYCAKQSDSQLSSLSSSSSSSSSSNSNEKTSLIVGFTVGIVGGAMLIALVALYFINKRYWKPKRQKNKALKLEEASQSYGNEEEYFDDEDDDDEDDEDDGGMRKDESHTLFNTSLVPPTLNVPGNRSSASTTRTRASNILPIAYIPGVTSGLSTDKLQSKLRSSSKRQNAAGDIRSHITLGSSILDGLDDEDDEHNQVLNKDADDNLITAIRAKPKLVQIAEEESDKEIQDLDVIEEQTEADDLSHMAKSEASHGNNDEDDDEEGSFILDLEIPESIRESTQGSRTESPFEDKFEIHDER [C30A;C55A] | decreasing interaction strength
